Measurements taken from patent publication US20240109954A1.

Biological target: EBOV GP displayed on vesicular stomatitis virus (VSV) pseudovirions (Ebola virus) (UniProt Q05320)
Assay: cell-based or functional assay

Chain of EBOV GP displayed on vesicular stomatitis virus (VSV) pseudovirions (Ebola virus) (Q05320 33-676 limits assumed): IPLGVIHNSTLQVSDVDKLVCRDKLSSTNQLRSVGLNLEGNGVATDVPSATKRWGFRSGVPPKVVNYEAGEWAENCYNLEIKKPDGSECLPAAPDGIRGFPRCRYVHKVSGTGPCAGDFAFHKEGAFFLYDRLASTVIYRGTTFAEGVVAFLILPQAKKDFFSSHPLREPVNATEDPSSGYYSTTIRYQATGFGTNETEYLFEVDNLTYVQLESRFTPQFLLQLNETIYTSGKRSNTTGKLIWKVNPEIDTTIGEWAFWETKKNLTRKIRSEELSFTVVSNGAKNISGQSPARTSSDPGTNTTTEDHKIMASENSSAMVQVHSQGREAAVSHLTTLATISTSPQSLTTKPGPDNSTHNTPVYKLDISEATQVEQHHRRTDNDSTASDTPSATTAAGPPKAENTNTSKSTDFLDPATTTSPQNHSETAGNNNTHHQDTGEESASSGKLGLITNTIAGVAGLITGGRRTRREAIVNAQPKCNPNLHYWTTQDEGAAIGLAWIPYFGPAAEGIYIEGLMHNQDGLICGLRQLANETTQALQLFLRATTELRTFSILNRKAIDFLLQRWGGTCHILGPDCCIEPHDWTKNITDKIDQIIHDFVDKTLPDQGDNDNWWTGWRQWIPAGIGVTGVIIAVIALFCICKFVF

KZ52 (antibody)
IC50, neutralization of VSV pseudotyped to display EBOV GP: 0.08 µg/mL
